Test results: article PMC5303882, “Structure of the homodimeric androgen receptor ligand-binding domain” (Nature Communications, 2017)

Target: T1, Recombinant human androgen receptor ligand-binding domain (AR-LBD, residues 662-919), DHT-bound (human, UniProt P10275 662-919)
T1 construct: also called AR/NR3C4 LBD; liganded AR-LBD; source: recombinant, expressed as a fusion protein with thioredoxin, purified to homogeneity
Assay: SPR; BIAcore T200, 25 °C; DHT-bound AR-LBD amine-coupled to a CM5 chip at about 6,800 RU, UBA3 peptide as analyte; 50 mM HEPES pH 7.2, 50 mM Li2SO4, 5% glycerol, 1 mM DTT, 5 mM DHT; 1:1 Langmuir model; triplicate
Conditions: both partners purified

Kd: 30.6 ± 0.7 nM
B1: Synthetic UBA3 peptide S59-V72 (LxxLL motif) (peptide)
peptide: STESLQFLLDTCKV
notes: also called UBA3-derived peptide; UBA3 59S-72V peptide; source: synthetic peptide, custom-synthesized at Pepmic
